Reference: US6770444

Target: human Ob-Rb (human) (UniProt P48357)
Assay: SPA displacement of [125I] leptin, Cos-7 cells transfected with human Ob-Rb

Sequence of UniProt P48357 (P48357 22-1165): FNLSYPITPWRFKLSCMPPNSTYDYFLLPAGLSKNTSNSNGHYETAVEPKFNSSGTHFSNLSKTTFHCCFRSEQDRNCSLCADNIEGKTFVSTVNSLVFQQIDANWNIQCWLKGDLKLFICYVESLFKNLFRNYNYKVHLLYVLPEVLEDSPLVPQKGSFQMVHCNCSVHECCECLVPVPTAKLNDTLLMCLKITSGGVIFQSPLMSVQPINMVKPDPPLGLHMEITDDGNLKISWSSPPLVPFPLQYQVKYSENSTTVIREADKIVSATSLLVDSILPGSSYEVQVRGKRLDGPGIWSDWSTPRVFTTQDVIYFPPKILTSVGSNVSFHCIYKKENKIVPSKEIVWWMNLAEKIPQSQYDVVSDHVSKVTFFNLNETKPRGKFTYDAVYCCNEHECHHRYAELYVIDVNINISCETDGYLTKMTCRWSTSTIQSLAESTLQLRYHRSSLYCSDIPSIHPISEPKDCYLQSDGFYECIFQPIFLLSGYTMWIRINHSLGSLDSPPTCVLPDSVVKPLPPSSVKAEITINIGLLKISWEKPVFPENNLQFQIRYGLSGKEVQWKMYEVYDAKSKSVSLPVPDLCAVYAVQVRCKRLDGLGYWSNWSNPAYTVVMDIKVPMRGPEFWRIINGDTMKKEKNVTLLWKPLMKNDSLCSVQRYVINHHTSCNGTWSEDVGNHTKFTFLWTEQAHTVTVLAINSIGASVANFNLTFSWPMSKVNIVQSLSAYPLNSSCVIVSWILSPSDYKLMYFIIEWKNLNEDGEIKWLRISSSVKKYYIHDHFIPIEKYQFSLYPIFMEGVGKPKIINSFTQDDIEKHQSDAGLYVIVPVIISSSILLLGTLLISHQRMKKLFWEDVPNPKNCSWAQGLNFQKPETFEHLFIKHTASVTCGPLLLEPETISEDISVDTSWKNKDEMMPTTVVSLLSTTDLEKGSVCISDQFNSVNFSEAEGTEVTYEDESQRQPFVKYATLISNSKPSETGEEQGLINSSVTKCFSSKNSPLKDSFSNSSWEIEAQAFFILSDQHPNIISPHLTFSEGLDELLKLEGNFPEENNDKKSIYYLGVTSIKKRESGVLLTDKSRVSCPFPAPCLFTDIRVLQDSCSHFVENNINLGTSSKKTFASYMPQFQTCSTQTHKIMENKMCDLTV

leptin (unlabeled) (ligand)
IC50: 10 to 15 nM
